Entries after “also recorded” stand apart in the source; their conditions may differ.
Columns and labels:
full-length ALK receptor = biological target: T1, full-length ALK receptor (Homo sapiens, UniProt Q9UM73); assay: Immunoprecipitation of ALK from neuroblastoma cell lysates; type: binding; settings: immunoblotting with commercial anti-ALK C-terminal antibody
T1 construct: endogenous in cells
Description: Cell lysates from the indicated neuroblastoma cell lines were subjected to immunoprecipitation (IP) using 8G7 and subsequently to immunoblotting analysis using the commercial anti-ALK C-terminal antibody.

ALK [1] = biological target: ALK (Homo sapiens, UniProt Q9UM73); assay: Screening and subcloning of hybridomas (ELISA, FCM, functional assays); type: binding; set-up: The human ALK extracellular domain (19-682 aa) fused to the mouse Fc gene; made in house; host or cells: 293T cells; settings: after subcloning by limiting dilution
Sequence of ALK (Homo sapiens, UniProt Q9UM73) (Q9UM73 19-682): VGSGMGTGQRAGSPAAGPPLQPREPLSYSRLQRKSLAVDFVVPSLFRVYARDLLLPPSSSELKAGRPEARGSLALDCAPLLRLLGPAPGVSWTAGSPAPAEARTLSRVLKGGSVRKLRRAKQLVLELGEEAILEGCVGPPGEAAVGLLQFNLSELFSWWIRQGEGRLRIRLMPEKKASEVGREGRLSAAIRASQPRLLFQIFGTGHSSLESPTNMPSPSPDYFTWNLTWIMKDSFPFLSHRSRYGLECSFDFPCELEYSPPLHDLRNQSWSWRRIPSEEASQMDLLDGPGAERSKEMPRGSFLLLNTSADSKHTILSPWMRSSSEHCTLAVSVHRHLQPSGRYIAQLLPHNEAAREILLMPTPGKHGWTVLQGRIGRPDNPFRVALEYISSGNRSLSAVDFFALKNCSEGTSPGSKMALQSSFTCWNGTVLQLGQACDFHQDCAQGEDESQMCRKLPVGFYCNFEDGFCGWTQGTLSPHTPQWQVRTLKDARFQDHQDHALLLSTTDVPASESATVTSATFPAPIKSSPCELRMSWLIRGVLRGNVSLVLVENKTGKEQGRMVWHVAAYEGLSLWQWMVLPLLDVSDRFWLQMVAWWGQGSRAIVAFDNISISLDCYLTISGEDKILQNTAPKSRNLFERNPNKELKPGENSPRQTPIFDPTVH
Method: HAT-selected fused cells were distributed in 96 well plates and the hybridoma supernatants were subjected to several rounds of screening. Initial screening was performed using ELISA against human Fc to test antigen binding with the ALK ECD-human Fc fusion protein. […] These were rescreened by FACS against Ba/F3 and neuroblastoma (NB) cells expressing ALK. From this screen, 22 positive hybridoma supernatants were tested in an antigen-binding capture ELISA assay and 11 were subsequently selected for further analysis. (A) Binding of hybridoma supernatants using an antigen-binding capture assay. The plate was coated with goat-anti-mouse IgG Fc, incubated with hybridoma supernatants, followed by ALK-HRP and visualized using an HRP substrate. (B) Binding of selected hybridoma supernatants to a human Fc antibody using ELISA screening. Plates were coated with the ALK ECD-human Fc fusion protein (ALK-hFc) together with an irrelevant hFc protein and visualized using an anti-mouse kappa light chain antibody. Only the supernatants with the highest binding are shown.
Supernatants from individual clones were then screened by ELISA and FACS analysis for ALK binding. Shown here is the viability of NGP neuroblastoma cells (expressing ALK) in the presence of anti-mouse IgG antibody in hybridoma clone supernatants. […]

ALK [2] = assay: Western blot analysis of ALK in cell lysates and conditioned media; type: binding, human
Description: (A) Western blot analysis of ALK in Kelly and SHEP neuroblastoma cells overexpressing GFP and mutated ALK using the mAb-7 and 8G7 anti-ALK antibodies. The mAb-7 antibody was developed at the Vigny laboratory (INSERM, Unité 706/Université Pierre et Marie Curie, Paris F-75005, France) (Moog-Lutz et al, 2005; PMID: 15886198) and obtained through a Materials Transfer Agreement. (B) Western blot analysis of ALK expression in various non-neuroblastoma cell lines: H1373 (human […]), HeLa (cervical cancer), NIH-3T3 (transformed mouse fibroblast cells) using 8G7 and C26G7 (rabbit monoclonal C-terminal anti-ALK antibody; Cell Signaling Technology; Cat #3333; RRID:AB_836862) anti-ALK antibodies.
The three HPLC-purified monoclonal antibodies (5H3, 7F7 and 8G7) all of the IgG1 subtype, were tested for their ability to bind to ALK in neuroblastoma cells expressing ALK. Both cell lysates and supernatants from cells grown with and without serum (to increase the expression of ALK) were tested by western blotting. […] (A) Western blot analysis of the indicated hybridoma clones in neuroblastoma cell lines expressing WT (NGP) and mutated (SHSY5Y, Kelly) ALK. NIH3T3 cells were used as controls. (B) Western blot analysis of conditioned media from NGP neuroblastoma and 293T cells engineered to express the WT ALK receptor, with the three ALK mAbs showing binding with the shed ALK extracellular domain. […]
Cell lysates were prepared in NP-40 buffer (Invitrogen) containing complete protease inhibitor (Roche), phosphatase inhibitor (Roche) and phenylmethylsulfonyl fluoride (PMSF). Lysates were incubated on ice for 20 min and centrifuged at 16,000 g for 15 min at 4° C. Protein concentrations of the supernatants were determined with the DC protein assay kit (Bio-Rad). Protein samples were denatured using NuPAGE LDS sample buffer (Invitrogen) and NuPAGE sample reducing agent (Invitrogen). Proteins were then separated on precast 4-12% Bis-Tris gels (Invitrogen) and transferred to nitrocellulose membranes (Bio-Rad). […]

[3] = biological target: T2, ALK extracellular fragment (Homo sapiens, UniProt Q9UM73); assay: Sandwich ELISA of shed ALK ECD in patient sera; type: binding; settings: sera of patients with ALK-expressing neuroblastoma
T2 construct: conditioned media containing the shed ALK (ALK 1-654) ECD fragment; from tissue; host or cells: serum of neuroblastoma patients
T2 sequence (Q9UM73 19-654): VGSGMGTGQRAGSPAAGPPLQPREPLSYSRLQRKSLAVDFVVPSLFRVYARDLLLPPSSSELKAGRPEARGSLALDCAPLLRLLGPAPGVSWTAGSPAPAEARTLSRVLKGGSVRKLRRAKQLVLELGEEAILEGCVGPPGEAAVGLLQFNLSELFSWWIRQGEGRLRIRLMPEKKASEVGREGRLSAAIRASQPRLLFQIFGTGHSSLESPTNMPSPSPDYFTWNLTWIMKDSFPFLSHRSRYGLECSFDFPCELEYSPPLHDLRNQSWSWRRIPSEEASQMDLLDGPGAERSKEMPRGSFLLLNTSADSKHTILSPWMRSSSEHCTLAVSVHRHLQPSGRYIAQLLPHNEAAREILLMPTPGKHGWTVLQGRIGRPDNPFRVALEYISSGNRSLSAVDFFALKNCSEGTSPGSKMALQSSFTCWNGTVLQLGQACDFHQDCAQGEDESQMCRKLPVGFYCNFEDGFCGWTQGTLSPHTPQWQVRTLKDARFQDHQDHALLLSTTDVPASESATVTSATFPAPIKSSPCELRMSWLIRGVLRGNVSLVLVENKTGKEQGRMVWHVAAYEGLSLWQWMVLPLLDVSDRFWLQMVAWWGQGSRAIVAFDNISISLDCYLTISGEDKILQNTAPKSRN
Description: Detection of the purified ALK-ECD protein using 8G7 (detection) and 7F7 (capture) anti-ALK antibodies by sandwich ELISA. (A) Standard curve showing the gradual increase in signal with increasing concentrations of the ALK-ECD protein in the media of NGP cells that express cleaved ALK. Quantification is shown below. (B) ELISA of the shed ALK ECD protein in sera from patients with neuroblastoma. Ample diluent buffer was used to dilute the serum samples, Media represents Dulbecco's Modified Eagle media in which human embryonic kidney 293T cells were grown, 293T media, conditioned media from 293T cells; ALK ECD 293T media, media collected from 293T cells in which the ALK-ECD-mFc protein was overexpressed.
We developed a sandwich ELISA technique where two ALK antibodies (for example, 5H3 or 7F7) can be used to capture the ALK extracellular fragment (antigen), and another antibody, such as the 8G7 antibody, can be used to detect the captured ALK extracellular fragment-5H3 or 7F7 complex. The different epitope binding sites of these antibodies on the ALK extracellular fragment protein allow for the development of the sandwich ELISA technique for the detection of the cleaved or shed ALK extracellular fragment in patient serum samples (FIG. 18). […]

T1 sequence (Q9UM73 19-1620): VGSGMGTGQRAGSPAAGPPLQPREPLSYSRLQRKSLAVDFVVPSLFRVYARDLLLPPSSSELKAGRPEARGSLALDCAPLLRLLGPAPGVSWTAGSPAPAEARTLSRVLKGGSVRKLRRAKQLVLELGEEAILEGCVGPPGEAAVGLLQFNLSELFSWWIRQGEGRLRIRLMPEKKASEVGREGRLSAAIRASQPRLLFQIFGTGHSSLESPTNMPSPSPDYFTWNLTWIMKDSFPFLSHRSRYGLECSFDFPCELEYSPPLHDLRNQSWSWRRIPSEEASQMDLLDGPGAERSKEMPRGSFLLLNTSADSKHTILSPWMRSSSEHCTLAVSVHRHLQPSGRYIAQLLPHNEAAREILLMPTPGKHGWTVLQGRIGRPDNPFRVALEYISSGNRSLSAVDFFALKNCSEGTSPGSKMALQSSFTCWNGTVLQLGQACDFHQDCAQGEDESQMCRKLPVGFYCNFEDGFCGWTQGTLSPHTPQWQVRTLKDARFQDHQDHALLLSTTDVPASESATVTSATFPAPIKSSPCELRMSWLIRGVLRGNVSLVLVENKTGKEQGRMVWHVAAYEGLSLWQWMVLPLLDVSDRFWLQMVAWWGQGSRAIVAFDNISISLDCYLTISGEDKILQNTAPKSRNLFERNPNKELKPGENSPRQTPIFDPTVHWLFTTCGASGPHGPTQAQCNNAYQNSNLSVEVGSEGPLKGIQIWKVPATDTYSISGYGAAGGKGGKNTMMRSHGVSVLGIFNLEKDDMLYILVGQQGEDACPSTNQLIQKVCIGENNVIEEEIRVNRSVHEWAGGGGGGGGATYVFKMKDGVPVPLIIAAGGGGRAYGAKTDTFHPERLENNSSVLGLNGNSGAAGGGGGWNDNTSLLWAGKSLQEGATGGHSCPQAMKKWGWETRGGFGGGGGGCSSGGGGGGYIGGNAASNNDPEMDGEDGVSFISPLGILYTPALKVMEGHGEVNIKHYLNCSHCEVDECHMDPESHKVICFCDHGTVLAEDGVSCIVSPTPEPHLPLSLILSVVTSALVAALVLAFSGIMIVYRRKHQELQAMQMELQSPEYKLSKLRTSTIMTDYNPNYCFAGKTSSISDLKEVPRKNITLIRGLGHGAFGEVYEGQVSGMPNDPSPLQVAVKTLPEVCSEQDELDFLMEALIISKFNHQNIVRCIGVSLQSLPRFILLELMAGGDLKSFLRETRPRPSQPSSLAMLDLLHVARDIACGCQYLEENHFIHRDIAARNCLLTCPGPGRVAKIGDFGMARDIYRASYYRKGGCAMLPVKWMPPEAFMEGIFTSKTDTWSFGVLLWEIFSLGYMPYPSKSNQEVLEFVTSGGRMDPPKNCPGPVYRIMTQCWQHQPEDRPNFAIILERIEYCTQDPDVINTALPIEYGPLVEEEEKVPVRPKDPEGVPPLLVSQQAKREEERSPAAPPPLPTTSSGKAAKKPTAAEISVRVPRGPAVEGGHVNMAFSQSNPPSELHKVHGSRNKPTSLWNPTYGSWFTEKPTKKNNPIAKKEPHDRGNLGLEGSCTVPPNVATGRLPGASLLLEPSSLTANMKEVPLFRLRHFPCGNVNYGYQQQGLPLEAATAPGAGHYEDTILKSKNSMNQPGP

B1: 8G7: murine monoclonal IgG1 anti-ALK antibody to the N-terminal ECD of human ALK; VH SEQ ID NO: 3, VL SEQ ID NO: 4 (antibody, V domains shown)
VH: QVQLQQSGAELVRPGASVTLSCKASGYTFTDYEMHWVKQTPVHGLEWIGAIDPETGGSAYNQKFKAKAILTADRSSSTAYMELRSLTSEDSAVYYCTRTRYYGSSPAMDYWGQGTSVTVSS
VL: DIQMTQTTSSLSASLGDRVTISCSASQGIGNYLNWYQQKPDGTVKLLIYYTSSLHSGVPSRFSGSGSGTDYSLTISNLEPEDIATYYCQQYSKLPYTFGGGTKLEIK
- immunoprecipitation of ALK (full-length ALK receptor): can immunoprecipitate ALK; also recorded: immunoprecipitated only the full-length 220 kDa form of ALK
- ALK specificity of the clone's monoclonal antibody (ALK [1]): high ALK specificity
- recognition of ALK in immunoblotting assays (ALK [2]): recognize ALK in immunoblotting assays
- specificity of ALK binding by western blot (ALK [2]; FIG. 15 and FIG. 25, compared with mAb-7 and C26G7 anti-ALK antibodies): better specificity compared to commercial Abs; also recorded: binds specifically to the N-terminal region of the ALK protein
- recognition of circulating ALK extracellular fragment in sera [3]: recognize the circulating ALK extracellular fragment in the sera of patients with ALK-expressing neuroblastoma

— patent publication US20240262917A1, “ANTIBODIES AGAINST ALK AND METHODS OF USE THEREOF” (Dana-Farber Cancer Institute, Inc., priority 2021, published 2024)
